In US20220193132A1 (NATIONAL RESEARCH COUNCIL OF CANADA, published 2022):

T1: EGFRvIII amino acid residues 15 to 37 with Lys36 to Ala mutation (human)
T1 construct: mutation is already in the entry
T1 peptide: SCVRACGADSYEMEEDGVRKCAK

T2: EGFRvIII amino acid residues 15 to 37 with Glu26 to Ala mutation (human)
T2 construct: mutation is already in the entry
T2 peptide: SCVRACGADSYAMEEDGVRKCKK

T3: EGFRvIII amino acid residues 15 to 37 with Glu28 to Ala mutation (human)
T3 construct: mutation is already in the entry
T3 peptide: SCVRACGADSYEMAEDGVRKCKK

T4: EGFRvIII amino acid residues 15 to 37 with Tyr25 to Ala mutation (human)
T4 construct: mutation is already in the entry
T4 peptide: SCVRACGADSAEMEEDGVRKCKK

T5: EGFRvIII amino acid residues 15 to 37 with Ser24 to Ala mutation (human)
T5 construct: mutation is already in the entry
T5 peptide: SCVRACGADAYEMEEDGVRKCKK

T6: EGFRvIII amino acid residues 15 to 37 with Val32 to Ala mutation (human)
T6 construct: mutation is already in the entry
T6 peptide: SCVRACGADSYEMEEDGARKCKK

T7: EGFRvIII amino acid residues 15 to 37 with Asp23 to Ala mutation (human)
T7 construct: mutation is already in the entry
T7 peptide: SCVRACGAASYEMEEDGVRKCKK

T8: EGFRvIII amino acid residues 15 to 37 with Arg33 to Ala mutation (human)
T8 construct: mutation is already in the entry
T8 peptide: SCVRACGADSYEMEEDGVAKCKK

T9: EGFRvIII amino acid residues 15 to 37 with Asp30 to Ala mutation (human)
T9 construct: mutation is already in the entry
T9 peptide: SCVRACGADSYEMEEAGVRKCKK

T10: EGFRvIII amino acid residues 15 to 37 with Ser15 to Ala mutation (human)
T10 construct: mutation is already in the entry
T10 peptide: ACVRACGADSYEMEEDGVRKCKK

T11: EGFRvIII amino acid residues 15 to 37 with Lys37 to Ala mutation (human)
T11 construct: mutation is already in the entry
T11 peptide: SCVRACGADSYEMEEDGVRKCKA

T12: EGFRvIII amino acid residues 15 to 37 with Gly31 to Ala mutation (human)
T12 construct: mutation is already in the entry
T12 peptide: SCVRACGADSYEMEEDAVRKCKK

T13: EGFRvIII amino acid residues 15 to 37 with Lys34 to Ala mutation (human)
T13 construct: mutation is already in the entry
T13 peptide: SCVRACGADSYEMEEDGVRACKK

T14: EGFRvIII amino acid residues 15 to 37 with Glu29 to Ala mutation (human)
T14 construct: mutation is already in the entry
T14 peptide: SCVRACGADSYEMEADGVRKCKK

T15: EGFRvIII amino acid residues 15 to 37 with Cys16 to Ala mutation (human)
T15 construct: mutation is already in the entry
T15 peptide: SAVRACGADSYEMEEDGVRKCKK

T16: EGFRvIII amino acid residues 15 to 37 with Val17 to Ala mutation (human)
T16 construct: mutation is already in the entry
T16 peptide: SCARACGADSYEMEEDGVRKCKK

T17: EGFRvIII amino acid residues 15 to 37 with Cys20 to Ala mutation (human)
T17 construct: mutation is already in the entry
T17 peptide: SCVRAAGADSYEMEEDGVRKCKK

T18: EGFRvIII amino acid residues 15 to 37 with Arg18 to Ala mutation (human)
T18 construct: mutation is already in the entry
T18 peptide: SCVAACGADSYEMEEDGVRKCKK

T19: EGFRvIII amino acid residues 15 to 37 with Gly21 to Ala mutation (human)
T19 construct: mutation is already in the entry
T19 peptide: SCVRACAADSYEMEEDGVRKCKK

T20: EGFRvIII amino acid residues 15 to 37 with Cys35 to Ala mutation (human)
T20 construct: mutation is already in the entry
T20 peptide: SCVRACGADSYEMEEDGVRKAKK

T21: EGFRvIII fragment amino acid residues 15 to 37, displayed on yeast (human)
T21 construct: also called aa 15-37; fragment 15-37
T21 peptide: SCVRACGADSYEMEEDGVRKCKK


Legend:
[1] = biological target: T22, EGFRvIII, full length, overexpressed on glioblastoma cells (human, UniProt P00533 298-623); test: flow cytometry dose-response on U87MG-EGFRvIII cells, apparent Kd
T22 construct: Cells overexpress full length EGFRvIII (deletion of exons 2-7 of EGFR); Cell line (U87MG or DKMG) is named under assay; also called U87MG-EGFRvIII; U87vIII

[2] = biological target: T23, recombinant human EGFRvIII protein (extracellular domain), denatured (human, UniProt P00533 298-623); test: ELISA Exp 2, purified mAb 1 ug/ml;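 note: ELISA of purified mAb binding to plate-coated antigen, native or heat/DTT-denatured, with pNPP substrate developed for 30 min and incubations at room temperature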
T23 construct: Same protein as m21 after 95 C for 5 min in PBS with 40 mM DTT (denatured, reduced); also called EGFRvIII Denatured

[3] = biological target: T24, recombinant human wild type EGFR protein (extracellular domain), denatured (human, UniProt P00533 25-645); test: ELISA Exp 2, purified mAb 1 ug/ml;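 note: ELISA of purified mAb binding to plate-coated antigen, native or heat/DTT-denatured, with pNPP substrate developed for 30 min and incubations at room temperature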
T24 construct: Same protein as m23 after 95 C for 5 min in PBS with 40 mM DTT (denatured, reduced); also called wt EGFR Denatured

[4] = biological target: T25, recombinant human EGFRvIII protein (extracellular domain), native (human, UniProt P00533 298-623); test: ELISA Exp 2, purified mAb 1 ug/ml;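 note: ELISA of purified mAb binding to plate-coated antigen, native or heat/DTT-denatured, with pNPP substrate developed for 30 min and incubations at room temperature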
T25 construct: also called hEGFRvIII

[5] = biological target: T26, recombinant human wild type EGFR protein (extracellular domain), native (human, UniProt P00533 25-645); test: ELISA Exp 2, purified mAb 1 ug/ml;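 note: ELISA of purified mAb binding to plate-coated antigen, native or heat/DTT-denatured, with pNPP substrate developed for 30 min and incubations at room temperature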
T26 construct: also called wt EGFR; EGFR WT

[6] = biological target: T1, EGFRvIII amino acid residues 15 to 37 …; test: yeast display flow cytometry, Myc-normalized;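 note: Anti-EGFRvIII monoclonal antibodies tested by flow cytometry on yeast displaying alanine-substituted fragments, two-color indirect fluorescence with anti-Myc signal tracking fusion protein expression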
Excerpt: (§1) Assessment of the binding of anti-EGFRvIII mAbs to the fusion proteins expressed on yeast cell surface was done by flow cytometry analysis. Briefly, yeast cells were labeled with both the anti-hEGFRvIII mAb and chicken anti-Myc antibody, the latter being used to monitor the level of expression of the fusion protein. Following a wash step, binding of the primary antibodies is probed by a two-color indirect fluorescence labeling using secondary antibodies specific for mouse and chicken antibodies, respectively.
(§2) To further characterize mAb epitopes within the EGFRvIII 15-37 region, an alanine scan of this region was performed, and modified fragments were expressed at the surface of the yeast. […] The resulting peptides were expressed at the surface of the yeast and each anti-EGFRvIII mAbs was tested on the corresponding yeast mutant strain by flow cytometry analysis. Thus, this assay determined the contribution of each amino acid(s) in the monoclonal antibody binding.

[7] = biological target: T2, EGFRvIII amino acid residues 15 to 37 …; test: yeast display flow cytometry, Myc-normalized;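 note: Anti-EGFRvIII monoclonal antibodies tested by flow cytometry on yeast displaying alanine-substituted fragments, two-color indirect fluorescence with anti-Myc signal tracking fusion protein expression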
Excerpt: as §1, §2

[8] = biological target: T3, EGFRvIII amino acid residues 15 to 37 …; test: yeast display flow cytometry, Myc-normalized;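 note: Anti-EGFRvIII monoclonal antibodies tested by flow cytometry on yeast displaying alanine-substituted fragments, two-color indirect fluorescence with anti-Myc signal tracking fusion protein expression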
Excerpt: as §1, §2

[9] = biological target: T4, EGFRvIII amino acid residues 15 to 37 …; test: yeast display flow cytometry, Myc-normalized;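 note: Anti-EGFRvIII monoclonal antibodies tested by flow cytometry on yeast displaying alanine-substituted fragments, two-color indirect fluorescence with anti-Myc signal tracking fusion protein expression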
Excerpt: as §1, §2

[10] = biological target: T5, EGFRvIII amino acid residues 15 to 37 …; test: yeast display flow cytometry, Myc-normalized
Excerpt: as §1, §2

[11] = biological target: T6, EGFRvIII amino acid residues 15 to 37 …; test: yeast display flow cytometry, Myc-normalized
Excerpt: as §1, §2

[12] = biological target: T7, EGFRvIII amino acid residues 15 to 37 …; test: yeast display flow cytometry, Myc-normalized
Excerpt: as §1, §2

[13] = biological target: T8, EGFRvIII amino acid residues 15 to 37 …; test: yeast display flow cytometry, Myc-normalized
Excerpt: as §1, §2

[14] = biological target: T9, EGFRvIII amino acid residues 15 to 37 …; test: yeast display flow cytometry, Myc-normalized
Excerpt: as §1, §2

[15] = biological target: T10, EGFRvIII amino acid residues 15 to 37 …; test: yeast display flow cytometry, Myc-normalized
Excerpt: as §1, §2

[16] = biological target: T11, EGFRvIII amino acid residues 15 to 37 …; test: yeast display flow cytometry, Myc-normalized
Excerpt: as §1, §2

[17] = biological target: T12, EGFRvIII amino acid residues 15 to 37 …; test: yeast display flow cytometry, Myc-normalized
Excerpt: as §1, §2

[18] = biological target: T13, EGFRvIII amino acid residues 15 to 37 …; test: yeast display flow cytometry, Myc-normalized
Excerpt: as §1, §2

[19] = biological target: T27, EGFRvIII amino acid residues 15 to 37 with Met27 to Ala mutation (human); test: yeast display flow cytometry, Myc-normalized
T27 construct: mutation is already in the entry
Excerpt: as §1, §2

[20] = biological target: T14, EGFRvIII amino acid residues 15 to 37 …; test: yeast display flow cytometry, Myc-normalized
Excerpt: as §1, §2

[21] = biological target: T15, EGFRvIII amino acid residues 15 to 37 …; test: yeast display flow cytometry, Myc-normalized
Excerpt: as §1, §2

[22] = biological target: T16, EGFRvIII amino acid residues 15 to 37 …; test: yeast display flow cytometry, Myc-normalized
Excerpt: as §1, §2

[23] = biological target: T22, EGFRvIII, full length, overexpressed on …; test: cell-based or functional assay
[24] = biological target: T17, EGFRvIII amino acid residues 15 to 37 …; test: yeast display flow cytometry, alanine scan
Excerpt: as §1, §2

[25] = biological target: T18, EGFRvIII amino acid residues 15 to 37 …; test: yeast display flow cytometry, alanine scan
Excerpt: as §1, §2

[26] = biological target: T19, EGFRvIII amino acid residues 15 to 37 …; test: yeast display flow cytometry, alanine scan
Excerpt: as §1, §2

[27] = biological target: T20, EGFRvIII amino acid residues 15 to 37 …; test: yeast display flow cytometry, alanine scan
Excerpt: as §1, §2

[28] = biological target: T22, EGFRvIII, full length, overexpressed on …; test: cell-based or functional assay; remark: listed apart in the source
[29] = biological target: T21, EGFRvIII fragment amino acid residues …; test: yeast surface display, flow cytometry
Excerpt: as §1

[30] = biological target: T23, recombinant human EGFRvIII protein …; test: ELISA Exp 1, mAb supernatant
[31] = biological target: T24, recombinant human wild type EGFR …; test: ELISA Exp 1, mAb supernatant
[32] = biological target: T25, recombinant human EGFRvIII protein …; test: ELISA Exp 1, mAb supernatant
[33] = biological target: T26, recombinant human wild type EGFR …; test: ELISA Exp 1, mAb supernatant

T27 sequence (peptide, as listed by the source, change not shown): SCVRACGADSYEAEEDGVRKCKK

Row | Binder | Kd [1] | ELISA absorbance 405 nm [2] | ELISA absorbance 405 nm [3] | ELISA absorbance 405 nm [4] | ELISA absorbance 405 nm [5] | % of binding vs wild-type fragment 15-37 [6] | % of binding vs wild-type fragment 15-37 [7] | % of binding vs wild-type fragment 15-37 [8] | % of binding vs wild-type fragment 15-37 [9] | % of binding vs wild-type fragment 15-37 [10] | % of binding vs wild-type fragment 15-37 [11] | % of binding vs wild-type fragment 15-37 [12] | % of binding vs wild-type fragment 15-37 [13] | % of binding vs wild-type fragment 15-37 [14] | % of binding vs wild-type fragment 15-37 [15] | % of binding vs wild-type fragment 15-37 [16] | % of binding vs wild-type fragment 15-37 [17] | % of binding vs wild-type fragment 15-37 [18] | % of binding vs wild-type fragment 15-37 [19] | % of binding vs wild-type fragment 15-37 [20] | other results
1 | F263-4B3 (antibody, V domains shown, Mouse hybridoma mAb) VH: EVQLQQSGPELVKPGSSVKISCKASGYTFTDYNMDWVKQSHGKSLEWIGTINPNNGGTSYNQKFKGKATLTVDKSSNTAYMELRSLTSEDSAVYYCARGYDYDLWFAYWGQGTLVTVSA VL: EIVLTQSPALMAASPGEKVTITCSVSSSISSSNLHWYQQKSETSPKPWIYGTSNLASGVPVRFSGSGSGTSYSLTISSMEAEDAATYYCQQWSSYPLTFGAGTKLELE | 21.2 nM | 0.603 A405 | 0.003 A405 | 1.19 A405 | 0.066 A405 | 99.2% | 102% | 86.7% | 98.8% | 194% | 92.4% | 94.1% | 68.4% | 94.3% | 94.7% | 170% | 49.9% | 136% | 101% | 71.6% | % of binding vs wild-type fragment 15-37 [21]: 169%; % of binding vs wild-type fragment 15-37 [22]: 146%; % internalization (pHrodo surrogate assay, vs 225 mAb) [23]: 61%; binding result [24]: no binding (tested: 0-15% of wild-type binding); binding result [25]: no binding (tested: 0-15% of wild-type binding); binding result [26]: no binding (tested: 0-15% of wild-type binding); binding result [27]: no binding (tested: 0-15% of wild-type binding); % survival (DM1 secondary-conjugate ADC surrogate assay, vs mouse IgG) [28]: 83%; binding result [29]: binds; ELISA absorbance 405 nm [30]: 1.74 A405; ELISA absorbance 405 nm [31]: 0.041 A405; ELISA absorbance 405 nm [32]: 1.5 A405; ELISA absorbance 405 nm [33]: 1.09 A405
2 | F263-5D8 (antibody, V domains shown, Mouse hybridoma mAb) VH: EVQLQQSGPDLVKPGSSVKISCKASGYTFTDYNIDWVKQSHGKSLEWIGTINPNYGGTSYNQKFKGKATLTVDKSSSTAYMELRSLTSEDSAVYYCARGYDYDLWFAYWGQGTLVTVSA VL: EIVLTQSPVFMAASPGEKVTITCSVSSSISSSNLHWYQQKSETSPKPWIYGTSNLASGVPVRFSGSGSGTSYSLTISSMEAEDAATYYCQQWSSYPLTFGAGTKLELK | 19.7 nM | 0.848 A405 | 0 A405 | 1.49 A405 | 0.159 A405 | 97.9% | 37.9% | 81.6% | 108% | 246% | 95.2% | 106% | 71.8% | 80.4% | 93.1% | 194% | 40.4% | 151% | 96.5% | 77.3% | % of binding vs wild-type fragment 15-37 [21]: 154%; % of binding vs wild-type fragment 15-37 [22]: 144%; % internalization (pHrodo surrogate assay, vs 225 mAb) [23]: 64%; binding result [24]: no binding (tested: 0-15% of wild-type binding); binding result [25]: no binding (tested: 0-15% of wild-type binding); binding result [26]: no binding (tested: 0-15% of wild-type binding); binding result [27]: no binding (tested: 0-15% of wild-type binding); % survival (DM1 secondary-conjugate ADC surrogate assay, vs mouse IgG) [28]: 69%; binding result [29]: binds; ELISA absorbance 405 nm [30]: 1.86 A405; ELISA absorbance 405 nm [31]: 0.049 A405; ELISA absorbance 405 nm [32]: 1.43 A405; ELISA absorbance 405 nm [33]: 1.38 A405
